Patent WO2009150539A2 (dated 2009)
“And” between values parts separate entries of the source, which are not always exact repeats. Equal values may be shown once.

How the values were obtained:
[1] = molecular target: T1, AahII toxin of Androctonus australis hector (Androctonus australis hector, UniProt P01484 20-83); experiment: SPR (BIAcore), AahII immobilised on CM5 chip, Nb in mobile phase
T1 construct: mature; also called Aahll
T1 sequence: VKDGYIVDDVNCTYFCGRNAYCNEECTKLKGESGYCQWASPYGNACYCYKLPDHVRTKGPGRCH

[2] = molecular target: T1, AahII toxin of Androctonus australis …; experiment: cell-based or functional assay
[3] = molecular target: T1, AahII toxin of Androctonus australis …; experiment: phage ELISA on coated AahII, Nb displayed on phage

B1: NbAahII38 (VHH)
VHH: DVQLVESGGGLVQPGGSLRLSCAASGFTFSNYVMSWVRQAPGKGLEWVSGINHGGGIQDYADSVKGRFTISRDNAKNTLYLQLNSLKIEDTAMYYCVRASHYRDYGPTIYSWGQGTQVTVSS
notes: also called cluster H
[1]
  Kd: 76 nM
  koff: 0.000781 s⁻¹
  kon: 10200 M⁻¹ s⁻¹
[2]
  Survivors/Injected mice; i.c.v.; AahII:Nb 1:2; 2 LD50/mouse; 24 ng Nb/mouse: 1 survivors of 4 mice
  Survivors/Injected mice; i.c.v.; AahII:Nb 1:2; 3 LD50/mouse; 36 ng Nb/mouse: 0 survivors of 4 mice

B2: NbAahII10 (VHH)
VHH: QVQLVESGGGSVQAGGSLKLSCAASGYFYSSNYCLGWFRQAPGKEREGVAQINIAPGRIYYADSVKGRFTISRDNAKNTVYLQMDSLKPEDTAIYYCASTAGNMYYGLRGPADFDYWGQGTQVTVSS
notes: also called NbAahIIlO; NbAahII lO
[1]
  Kd: 0.49 nM
  koff: 0.000569 s⁻¹
  kon: 1.14e+06 M⁻¹ s⁻¹
[2]
  NC = (LD50 with Nb - LD50 without Nb)/Nb; i.c.v.; AahII:Nb 1:4: 37000 LD50/mg and 555 LD50/nmol
  Survivors/Injected mice; i.c.v.; AahII:Nb 1:4; 2 LD50/mouse; 48 ng Nb/mouse: 4 survivors of 4 mice
  Survivors/Injected mice; i.c.v.; AahII:Nb 1:4; 3 LD50/mouse; 72 ng Nb/mouse: 4 survivors of 4 mice
  neutralizing capacity, i.c.v., toxin/Nb ratio 1/4: ~37500 LD50/mg

B3: NbAahII45 (VHH)
VHH: QVQLQESGGGSVQAGGSLKLSCAASGYFYSSNYYMAWFRQAPGKEREGVAHINRSGRITLYADSVKGRFTMSRDNAKNTVYLQMNSLKPEDTAIYYCAAGVRTHMPPLASYGFDYWGQGTQVTVSS
[3]
  binding result: binds

B4: NbAahII16 (VHH)
VHH: HVQLVESGGGSVQAGGSLRLSCAASGYTFSNYRMGWFRRAPGKECELVSTILTDGSTNYADSVKGRFTISRDNAKNTVYLLMNNLKAEDTAVYYCAAGNSRKGYLRRCGGTDFGYWGQGTQVTVSS
notes: also called NbAahlllό
[3]
  binding result: binds

B5: NbAahII3 (VHH)
VHH: QVQLVESGGGSVQAGGSLRLACAASGVTLSDYCMGWFRQAPGKEREGVAAIKDRGSISYYADSVKGRFTISKDNAKNTMYLQMNRLNSEDTAMYYCAVTRNSCLGLAKFRPPSYNYWGQGTQVTVSS
notes: also called NbAahID; NbAahIB
[3]
  binding result: binds

B6: NbAahII48 (VHH)
VHH: QVQLVESGGGSVQAGGSLRLSCAASGYTCTKFNMGWYRQAPGKEREFVATIRRDSTIYYADSVKGRFTISQDNAKNMVYLQMTSLKPEDSAMYYCSTRCVTSSVPYWGQGTQVTVSS
[3]
  binding result: binds

B7: NbAahII11 (VHH)
VHH: QVQLQESGGGSVQAGGSLRLSCAASGLTLNNYCIGWFRQAPGKEREGVAALKSGGSFTYYADSVKGRFTISRDNAKNTMYLQMSSLNSEDTAMYYCAVTRNSCLGLAKFRPSSYNYWGQGTQVTVSS
notes: also called NbAaWI 1 1; NbAahIIl l
[3]
  binding result: binds

B8: NbAahII32 (VHH)
VHH: QVQLQESGGGSVQAGGSLRLSCAASGLTLNNYCIGWFRQAPGKEREGVAALKSGGSFTYYADSVKGRFTISRDNAKNTMYLQMSSLNSEDTAMYYCAVTRNSCLGLAKFRPSSYNYWGQGTQVTVSS
[3]
  binding result: binds

B9: NbAahII6 (VHH)
VHH: QVQLQESGGGSVQAGGSLRLSCAASGATLNNYCLGWFRQAPGKEREGVAAFKSGGSFTYYADSVKGRFTISKDNAKNTMYLQMNSLNSEDTAMYYCAVTRHSCLGLAKFRPSSYNYWGQGTQVTVSS
notes: also called NbAahllό
[3]
  binding result: binds
